In patent US20150147316A1 (Seagen, published 2015):

B1: HILE (antibody, V domains shown)
VH: QVQLVQSGAEVKKPGASVKVSCKASGYTFTNYDINWVRQAPGQGLEWIGWIYPGDGSTKYNEKFKAKATLTADTSTSTAYMELRSLRSDDTAVYYCASGYEDAMDYWGQGTTVTVSS
VL: DIQMTQSPSSLSASVGDRVTITCKASQDINSYLSWFQQKPGKAPKSLIYRANRLVDGVPSRFSGSGSGTDYTLTISSLQPEDFATYYCLQYDEFPLTFGGGTKVEIK
notes: Humanized antibody, heavy chain HI with light chain LE
B2: HCLG (antibody, V domains shown)
VH: QVQLVQSGAEVKKPGASVKVSCKASGYTFTNYDINWVRQAPGQGLEWMGWIYPGDGSTKYNEKFKARVTMTTDTSTSTAYMELRSLRSDDTAVYYCASGYEDAMDYWGQGTTVTVSS
VL: DIQMTQSPSSLSASVGDRVTINCKASQDINSYLSWFQQKPGKAPKTLIYRANRLVDGVPSRFSGSGSGQDYTLTISSLQPEDFATYYCLQYDEFPLTFGGGTKVEIK
notes: Humanized antibody, heavy chain HC with light chain LG
B3: HCLA (antibody, V domains shown)
VH: QVQLVQSGAEVKKPGASVKVSCKASGYTFTNYDINWVRQAPGQGLEWMGWIYPGDGSTKYNEKFKARVTMTTDTSTSTAYMELRSLRSDDTAVYYCASGYEDAMDYWGQGTTVTVSS
VL: DIQMTQSPSSLSASVGDRVTITCKASQDINSYLSWFQQKPGKAPKSLIYRANRLVDGVPSRFSGSGSGTDFTLTISSLQPEDFATYYCLQYDEFPLTFGGGTKVEIK
notes: Humanized antibody, heavy chain HC with light chain LA
B4: HCLE (antibody, V domains shown)
VH: QVQLVQSGAEVKKPGASVKVSCKASGYTFTNYDINWVRQAPGQGLEWMGWIYPGDGSTKYNEKFKARVTMTTDTSTSTAYMELRSLRSDDTAVYYCASGYEDAMDYWGQGTTVTVSS
VL: DIQMTQSPSSLSASVGDRVTITCKASQDINSYLSWFQQKPGKAPKSLIYRANRLVDGVPSRFSGSGSGTDYTLTISSLQPEDFATYYCLQYDEFPLTFGGGTKVEIK
notes: Humanized antibody, heavy chain HC with light chain LE
B5: h2H12 antibody (2H12 HILG) (antibody, V domains shown)
VH: QVQLVQSGAEVKKPGASVKVSCKASGYTFTNYDINWVRQAPGQGLEWIGWIYPGDGSTKYNEKFKAKATLTADTSTSTAYMELRSLRSDDTAVYYCASGYEDAMDYWGQGTTVTVSS
VL: DIQMTQSPSSLSASVGDRVTINCKASQDINSYLSWFQQKPGKAPKTLIYRANRLVDGVPSRFSGSGSGQDYTLTISSLQPEDFATYYCLQYDEFPLTFGGGTKVEIK
notes: also called humanized 2H12; human 2H12 antibody
B6: HILA (antibody, V domains shown)
VH: QVQLVQSGAEVKKPGASVKVSCKASGYTFTNYDINWVRQAPGQGLEWIGWIYPGDGSTKYNEKFKAKATLTADTSTSTAYMELRSLRSDDTAVYYCASGYEDAMDYWGQGTTVTVSS
VL: DIQMTQSPSSLSASVGDRVTITCKASQDINSYLSWFQQKPGKAPKSLIYRANRLVDGVPSRFSGSGSGTDFTLTISSLQPEDFATYYCLQYDEFPLTFGGGTKVEIK
notes: Humanized antibody, heavy chain HI with light chain LA
B7: murine mAb 2H12 (antibody, V domains shown)
VH: QVQLQQSGPELVRPGTFVKISCKASGYTFTNYDINWVNQRPGQGLEWIGWIYPGDGSTKYNEKFKAKATLTADKSSSTAYLQLNNLTSENSAVYFCASGYEDAMDYWGQGTSVTVSS
VL: DIKMTQSPSSMYASLGERVIINCKASQDINSYLSWFQQKPGKSPKTLIYRANRLVDGVPSRFSGSGSGQDYSLTISSLEYEDMGIYYCLQYDEFPLTFGAGTKLELK
notes: Murine monoclonal antibody from Balb/c mice; also called m2H12; murine 2H12 antibody
B8: c2H12 (antibody, V domains shown)
VH: QVQLQQSGPELVRPGTFVKISCKASGYTFTNYDINWVNQRPGQGLEWIGWIYPGDGSTKYNEKFKAKATLTADKSSSTAYLQLNNLTSENSAVYFCASGYEDAMDYWGQGTSVTVSS
VL: DIKMTQSPSSMYASLGERVIINCKASQDINSYLSWFQQKPGKSPKTLIYRANRLVDGVPSRFSGSGSGQDYSLTISSLEYEDMGIYYCLQYDEFPLTFGAGTKLELK
notes: also called chimeric 2H12
B9: cHLA (antibody, V domains shown)
VH: QVQLQQSGPELVRPGTFVKISCKASGYTFTNYDINWVNQRPGQGLEWIGWIYPGDGSTKYNEKFKAKATLTADKSSSTAYLQLNNLTSENSAVYFCASGYEDAMDYWGQGTSVTVSS
VL: DIQMTQSPSSLSASVGDRVTITCKASQDINSYLSWFQQKPGKAPKSLIYRANRLVDGVPSRFSGSGSGTDFTLTISSLQPEDFATYYCLQYDEFPLTFGGGTKVEIK
notes: Hybrid of the chimeric heavy chain (murine VH, human constant region) and humanized light chain LA
B10: cHLF (antibody, V domains shown)
VH: QVQLQQSGPELVRPGTFVKISCKASGYTFTNYDINWVNQRPGQGLEWIGWIYPGDGSTKYNEKFKAKATLTADKSSSTAYLQLNNLTSENSAVYFCASGYEDAMDYWGQGTSVTVSS
VL: DIQMTQSPSSLSASVGDRVIINCKASQDINSYLSWFQQKPGKAPKSLIYRANRLVDGVPSRFSGSGSGTDFTLTISSLQPEDFATYYCLQYDEFPLTFGGGTKVEIK
notes: Hybrid of the chimeric heavy chain (murine VH, human constant region) and humanized light chain LF
B11: cHLE (antibody, V domains shown)
VH: QVQLQQSGPELVRPGTFVKISCKASGYTFTNYDINWVNQRPGQGLEWIGWIYPGDGSTKYNEKFKAKATLTADKSSSTAYLQLNNLTSENSAVYFCASGYEDAMDYWGQGTSVTVSS
VL: DIQMTQSPSSLSASVGDRVTITCKASQDINSYLSWFQQKPGKAPKSLIYRANRLVDGVPSRFSGSGSGTDYTLTISSLQPEDFATYYCLQYDEFPLTFGGGTKVEIK
notes: Hybrid of the chimeric heavy chain (murine VH, human constant region) and humanized light chain LE
B12: cHLG (antibody, V domains shown)
VH: QVQLQQSGPELVRPGTFVKISCKASGYTFTNYDINWVNQRPGQGLEWIGWIYPGDGSTKYNEKFKAKATLTADKSSSTAYLQLNNLTSENSAVYFCASGYEDAMDYWGQGTSVTVSS
VL: DIQMTQSPSSLSASVGDRVTINCKASQDINSYLSWFQQKPGKAPKTLIYRANRLVDGVPSRFSGSGSGQDYTLTISSLQPEDFATYYCLQYDEFPLTFGGGTKVEIK
notes: Hybrid of the chimeric heavy chain (murine VH, human constant region) and humanized light chain LG
B13: HCcL (antibody, V domains shown)
VH: QVQLVQSGAEVKKPGASVKVSCKASGYTFTNYDINWVRQAPGQGLEWMGWIYPGDGSTKYNEKFKARVTMTTDTSTSTAYMELRSLRSDDTAVYYCASGYEDAMDYWGQGTTVTVSS
VL: DIKMTQSPSSMYASLGERVIINCKASQDINSYLSWFQQKPGKSPKTLIYRANRLVDGVPSRFSGSGSGQDYSLTISSLEYEDMGIYYCLQYDEFPLTFGAGTKLELK
notes: Hybrid of humanized heavy chain HC and the chimeric light chain (murine VL, human constant region)
B14: cHLB (antibody, V domains shown)
VH: QVQLQQSGPELVRPGTFVKISCKASGYTFTNYDINWVNQRPGQGLEWIGWIYPGDGSTKYNEKFKAKATLTADKSSSTAYLQLNNLTSENSAVYFCASGYEDAMDYWGQGTSVTVSS
VL: DIKMTQSPSSLSASVGDRVTITCKASQDINSYLSWFQQKPGKAPKSLIYRANRLVDGVPSRFSGSGSGTDFTLTISSLQPEDFATYYCLQYDEFPLTFGGGTKVEIK
notes: Hybrid of the chimeric heavy chain (murine VH, human constant region) and humanized light chain LB
B15: HIcL (antibody, V domains shown)
VH: QVQLVQSGAEVKKPGASVKVSCKASGYTFTNYDINWVRQAPGQGLEWIGWIYPGDGSTKYNEKFKAKATLTADTSTSTAYMELRSLRSDDTAVYYCASGYEDAMDYWGQGTTVTVSS
VL: DIKMTQSPSSMYASLGERVIINCKASQDINSYLSWFQQKPGKSPKTLIYRANRLVDGVPSRFSGSGSGQDYSLTISSLEYEDMGIYYCLQYDEFPLTFGAGTKLELK
notes: Hybrid of humanized heavy chain HI and the chimeric light chain (murine VL, human constant region)
B16: cHLC (antibody, V domains shown)
VH: QVQLQQSGPELVRPGTFVKISCKASGYTFTNYDINWVNQRPGQGLEWIGWIYPGDGSTKYNEKFKAKATLTADKSSSTAYLQLNNLTSENSAVYFCASGYEDAMDYWGQGTSVTVSS
VL: DIQMTQSPSSLSASVGDRVTITCKASQDINSYLSWFQQKPGKAPKTLIYRANRLVDGVPSRFSGSGSGTDFTLTISSLQPEDFATYYCLQYDEFPLTFGGGTKVEIK
notes: Hybrid of the chimeric heavy chain (murine VH, human constant region) and humanized light chain LC
B17: cHLD (antibody, V domains shown)
VH: QVQLQQSGPELVRPGTFVKISCKASGYTFTNYDINWVNQRPGQGLEWIGWIYPGDGSTKYNEKFKAKATLTADKSSSTAYLQLNNLTSENSAVYFCASGYEDAMDYWGQGTSVTVSS
VL: DIQMTQSPSSLSASVGDRVTITCKASQDINSYLSWFQQKPGKAPKSLIYRANRLVDGVPSRFSGSGSGQDFTLTISSLQPEDFATYYCLQYDEFPLTFGGGTKVEIK
notes: Hybrid of the chimeric heavy chain (murine VH, human constant region) and humanized light chain LD

Key:
human CD33 [1] = molecular target: T1, human CD33 (human, UniProt P20138 18-364); test: flow cytometry on HEK293F cells expressing human CD33; competition with 1 nM AlexaFluor-647 m2H12 (methods paragraph 148)
T1 construct: Endogenous on HL-60 and HEL 92.1.7 AML cells, or recombinant on transfected HEK293F cells; The signal peptide is stated as amino acids 1-17; also called hCD33
T1 sequence (P20138 18-364): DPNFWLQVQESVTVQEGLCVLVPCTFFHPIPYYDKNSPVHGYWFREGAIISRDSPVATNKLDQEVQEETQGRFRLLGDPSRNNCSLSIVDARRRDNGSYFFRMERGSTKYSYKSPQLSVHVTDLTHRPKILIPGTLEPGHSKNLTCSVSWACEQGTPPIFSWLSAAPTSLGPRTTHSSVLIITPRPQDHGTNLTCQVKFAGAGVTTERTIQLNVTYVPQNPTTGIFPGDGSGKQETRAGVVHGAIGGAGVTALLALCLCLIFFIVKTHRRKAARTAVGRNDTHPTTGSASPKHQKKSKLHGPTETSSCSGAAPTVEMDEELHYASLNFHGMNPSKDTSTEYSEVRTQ
Procedure: (§1) Cells were centrifuged, washed 3 times with PBS, and resuspended in 125 μL of a PBS+1% BSA solution. Fluorescence was analyzed using a flow cytometer, and the percent of saturated fluorescent signal was used to determine percent labeled 2H12 mAb bound. The EC50 was extrapolated by fitting the data to a sigmoidal dose-response curve with variable slope.
(§2) Humanized heavy and light chains were paired with chimeric light and heavy chains (chimeric chains composed of murine variable regions and human constant regions) respectively. The humanized/chimeric hybrid variants of CD33 mAb were tested for binding to human CD33 expressed on the surface of HEL 92.1.7 AML cells (Table 5). Heavy chains HC and HI were selected for further study. Humanized antibodies were expressed representing permutations of humanized heavy chains HC and HI and humanized light chains LA, LE and LG and binding to cells expressing human or cynomolgus (cyno) CD33 was determined (Table 6). The HILG antibody (2H12 HILG) was selected as the humanized antibody that most closely resembled the binding characteristics of the murine CD33 mAb m2H12. The HILG antibody is referred to as the h2H12 antibody ([…] 2H12 antibody). The KD for m2H12, h2H12, and h2H12 with an S239C mutation (EU numbering) in the IgG1 heavy chain (referred to as h2H12EC, for engineered cysteine), was determined for human CD33 expressed as an endogenous protein in two AML cell lines or as a recombinant protein in a HEK293F cell line. The KD for these antibodies was also determined for cyno CD33 expressed as a recombinant protein in a HEK293F cell line (Table 7).

cynomolgus CD33 = molecular target: T2, cynomolgus CD33 (cynomolgus); test: flow cytometry on HEK293F cells expressing cyno CD33; competition with 1 nM AlexaFluor-647 m2H12 (methods paragraph 148)
T2 construct: Recombinant on transfected HEK293F cells; also called cyno CD33; cynoCD33
T2 sequence (chain, as listed by the source limits assumed): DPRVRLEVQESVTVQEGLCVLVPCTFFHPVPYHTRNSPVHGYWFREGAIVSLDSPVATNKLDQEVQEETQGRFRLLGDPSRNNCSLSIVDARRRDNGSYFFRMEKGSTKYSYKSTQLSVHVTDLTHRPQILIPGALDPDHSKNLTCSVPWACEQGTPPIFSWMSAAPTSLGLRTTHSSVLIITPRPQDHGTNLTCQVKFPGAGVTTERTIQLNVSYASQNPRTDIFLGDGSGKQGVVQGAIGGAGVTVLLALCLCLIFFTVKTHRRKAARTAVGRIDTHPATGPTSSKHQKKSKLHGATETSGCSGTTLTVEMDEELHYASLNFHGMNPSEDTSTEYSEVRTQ
Procedure: as §1, §2

human CD33 [2] = molecular target: T1, human CD33; test: flow cytometry on HEL 92.1.7 cells; competition with 1 nM AlexaFluor-647 m2H12 (methods paragraph 148)
Procedure: as §1, §2

human CD33 [3] = molecular target: T1, human CD33; test: flow cytometry on HEL 92.1.7 AML cells; competition with 1 nM AlexaFluor-647 m2H12 (methods paragraph 148)
Procedure: as §1, §2

Binder	EC50 (human CD33 [1]) [nM]	EC50 (cynomolgus CD33) [nM]	EC50 (human CD33 [2]) [nM]	EC50 (human CD33 [3]) [nM]
B1	19.3	64.8	11.1	
B2	17.9	63	7.9	
B3	31.7	141	13.6	
B4	22.2	129	12.8	
B5	14.4	39.9	7.8	3.39
B6	26.8	126	12.2	
B7	11.6	30.6	5.4	2.38
B8				1.97
B9				2.61
B10				2.02
B11				1.95
B12				1.91
B13				2.95
B14				2.53
B15				2.56
B16				2.49
B17				2.48
